Laboratory results as given in patent publication US20250073307A1 (Chugai, published 2025).
Read-outs that look alike come from different tables or passages of the source.

How the values were obtained:
Test in all cases: cell-based or functional assay
[1] = target: T1, mouse CXCR3 (mCXCR3) expressed on Ba/F3 transfectant cells (mouse, UniProt O88410 1-367)
T1 sequence (looked up): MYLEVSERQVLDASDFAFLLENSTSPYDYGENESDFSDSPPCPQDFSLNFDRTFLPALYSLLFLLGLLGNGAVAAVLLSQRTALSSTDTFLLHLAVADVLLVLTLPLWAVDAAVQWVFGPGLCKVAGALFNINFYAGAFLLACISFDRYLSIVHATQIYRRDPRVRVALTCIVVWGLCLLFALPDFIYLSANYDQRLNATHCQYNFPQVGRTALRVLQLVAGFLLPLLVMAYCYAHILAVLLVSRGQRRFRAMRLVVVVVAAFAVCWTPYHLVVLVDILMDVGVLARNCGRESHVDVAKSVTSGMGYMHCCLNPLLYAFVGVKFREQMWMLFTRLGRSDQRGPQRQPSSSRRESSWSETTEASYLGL

[2] = target: T1, mouse CXCR3 (mCXCR3) expressed on Ba/F3 …; remark: listed apart in the source
[3] = target: T1, mouse CXCR3 (mCXCR3) expressed on Ba/F3 …; remark: listed apart in the source
[4] = target: T1, mouse CXCR3 (mCXCR3) expressed on Ba/F3 …; remark: listed apart in the source
[5] = target: T1, mouse CXCR3 (mCXCR3) expressed on Ba/F3 …; remark: listed apart in the source

B1: hCXCL10R75A.0642-G1T4k.one//VHn-G1T4h.one.H435R (Fc fusion)
chain 1: VPLSRTVRCTCISISNQCVNPRSLEKLEIIPASQFCPRVEIIATMKKKGEKRCLNPESKCIKNLLKAVSKERSKASPEPKSSDKTHTCPPCPAPELRRGPSVFLFPPKPKDTLMISRTPEVTCVVVDVSHEDPEVKFNWYVDGVEVHNAKTKPREEQYNSTYRVVSVLTVLHQDWLNGKEYKCKVSNKGLPSSIEKTISKAKGQPREPQVCTLPPSREEMTKNQVSLWCLVKGFYPSDIAVEWESNGQPENNYKTTPPVLDSDGSFFLYSKLTVDKSRWQEGNVFSCSVMHEALHNHYTQKSLSLSP
chain 2: EPKSSDKTHTCPPCPAPELRRGPSVFLFPPKPKDTLMISRTPEVTCVVVDVSHEDPEVKFNWYVDGVEVHNAKTKPREEQYNSTYRVVSVLTVLHQDWLNGKEYKCKVSNKGLPSSIEKTISKAKGQPREPQVYTLPPSRCEMTKNQVSLSCAVKGFYPSDIAVEWESNGQPENNYKTTPPVLDSDGSFFLVSKLTVDKSRWQEGNVFSCSVMHEALHNRYTQKSLSLSP
In the case of B1, the “cell migration-inducing activity (BaF3/mCXCR3 transwell) at 3 nM, relative to hCXCL10R75A Fc fusion = 100%” value [1] is reported as 196%, the “cell migration-inducing activity (BaF3/mCXCR3 transwell) at 10 nM, relative to hCXCL10R75A Fc fusion = 100%” value [1] is reported as 150% and the “cell migration-inducing activity (BaF3/mCXCR3 transwell) at 30 nM, relative to hCXCL10R75A Fc fusion = 100%” value [1] is reported as 106%. For the same binder, the “cell migration-inducing activity (BaF3/mCXCR3 transwell) at 100 nM, relative to hCXCL10R75A Fc fusion = 100%” value [1] was 98%, the “cell migration-inducing activity (BaF3/mCXCR3 transwell) at 300 nM, relative to hCXCL10R75A Fc fusion = 100%” value [1] was 116% and the “cell migration-inducing activity (BaF3/mCXCR3 transwell) at 1000 nM, relative to hCXCL10R75A Fc fusion = 100%” value [1] was 80%. The “cell migration-inducing activity (BaF3/mCXCR3 transwell) at 3 nM, relative to hCXCL10R75A Fc fusion = 100%” value [2] was 196%, the “cell migration-inducing activity (BaF3/mCXCR3 transwell) at 10 nM, relative to hCXCL10R75A Fc fusion = 100%” value [2] was 150% and the “cell migration-inducing activity (BaF3/mCXCR3 transwell) at 30 nM, relative to hCXCL10R75A Fc fusion = 100%” value [2] was 106%. For the same binder, the “cell migration-inducing activity (BaF3/mCXCR3 transwell) at 100 nM, relative to hCXCL10R75A Fc fusion = 100%” value [2] was 98%, the “cell migration-inducing activity (BaF3/mCXCR3 transwell) at 300 nM, relative to hCXCL10R75A Fc fusion = 100%” value [2] was 116% and the “cell migration-inducing activity (BaF3/mCXCR3 transwell) at 1000 nM, relative to hCXCL10R75A Fc fusion = 100%” value [2] was 80%.

B2: hCXCL10R75A.0613-G1T4k.one//VHn-G1T4h.one.H435R (Fc fusion)
chain 1: YVLSRTPRCTCISISNQCVNPRSLEKLEIIPASQFCPRVEIIATMKKKGEKRCLNPESKCIKNLLKAVSKERSKASPEPKSSDKTHTCPPCPAPELRRGPSVFLFPPKPKDTLMISRTPEVTCVVVDVSHEDPEVKFNWYVDGVEVHNAKTKPREEQYNSTYRVVSVLTVLHQDWLNGKEYKCKVSNKGLPSSIEKTISKAKGQPREPQVCTLPPSREEMTKNQVSLWCLVKGFYPSDIAVEWESNGQPENNYKTTPPVLDSDGSFFLYSKLTVDKSRWQEGNVFSCSVMHEALHNHYTQKSLSLSP
chain 2: EPKSSDKTHTCPPCPAPELRRGPSVFLFPPKPKDTLMISRTPEVTCVVVDVSHEDPEVKFNWYVDGVEVHNAKTKPREEQYNSTYRVVSVLTVLHQDWLNGKEYKCKVSNKGLPSSIEKTISKAKGQPREPQVYTLPPSRCEMTKNQVSLSCAVKGFYPSDIAVEWESNGQPENNYKTTPPVLDSDGSFFLVSKLTVDKSRWQEGNVFSCSVMHEALHNRYTQKSLSLSP
In the case of B2, the “cell migration-inducing activity at 3 nM, relative to hCXCL10R75A.0670 Fc fusion = 100%” value [3] is reported as 209%, the “cell migration-inducing activity at 10 nM, relative to hCXCL10R75A.0670 Fc fusion = 100%” value [3] is reported as 132% and the “cell migration-inducing activity at 30 nM, relative to hCXCL10R75A.0670 Fc fusion = 100%” value [3] is reported as 110%. The “cell migration-inducing activity at 100 nM, relative to hCXCL10R75A.0670 Fc fusion = 100%” value [3] was 102%, the “cell migration-inducing activity at 300 nM, relative to hCXCL10R75A.0670 Fc fusion = 100%” value [3] was 93% and the “cell migration-inducing activity at 1000 nM, relative to hCXCL10R75A.0670 Fc fusion = 100%” value [3] was 49%.

B3: hCXCL10R75A.0643-G1T4k.one//VHn-G1T4h.one.H435R (Fc fusion)
chain 1: YVLSRTVRCTCISISNQPVNPRSLEKLEIIPASQFCPRVEIIATMKKKGEKRCLNPESKAIKNLLKAVSKERSKASPEPKSSDKTHTCPPCPAPELRRGPSVFLFPPKPKDTLMISRTPEVTCVVVDVSHEDPEVKFNWYVDGVEVHNAKTKPREEQYNSTYRVVSVLTVLHQDWLNGKEYKCKVSNKGLPSSIEKTISKAKGQPREPQVCTLPPSREEMTKNQVSLWCLVKGFYPSDIAVEWESNGQPENNYKTTPPVLDSDGSFFLYSKLTVDKSRWQEGNVFSCSVMHEALHNHYTQKSLSLSP
chain 2: EPKSSDKTHTCPPCPAPELRRGPSVFLFPPKPKDTLMISRTPEVTCVVVDVSHEDPEVKFNWYVDGVEVHNAKTKPREEQYNSTYRVVSVLTVLHQDWLNGKEYKCKVSNKGLPSSIEKTISKAKGQPREPQVYTLPPSRCEMTKNQVSLSCAVKGFYPSDIAVEWESNGQPENNYKTTPPVLDSDGSFFLVSKLTVDKSRWQEGNVFSCSVMHEALHNRYTQKSLSLSP
With B3 the “cell migration-inducing activity (BaF3/mCXCR3 transwell) at 3 nM, relative to hCXCL10R75A Fc fusion = 100%” value [4] was 126%, the “cell migration-inducing activity (BaF3/mCXCR3 transwell) at 10 nM, relative to hCXCL10R75A Fc fusion = 100%” value [4] was 100% and the “cell migration-inducing activity (BaF3/mCXCR3 transwell) at 30 nM, relative to hCXCL10R75A Fc fusion = 100%” value [4] was 129%. For the same binder, the “cell migration-inducing activity (BaF3/mCXCR3 transwell) at 100 nM, relative to hCXCL10R75A Fc fusion = 100%” value [4] was 141%, the “cell migration-inducing activity (BaF3/mCXCR3 transwell) at 300 nM, relative to hCXCL10R75A Fc fusion = 100%” value [4] was 124% and the “cell migration-inducing activity (BaF3/mCXCR3 transwell) at 1000 nM, relative to hCXCL10R75A Fc fusion = 100%” value [4] was 26%.

B4: hCXCL10R75A.0670-G1T4k.one//VHn-G1T4h.one.H435R (Fc fusion)
chain 1: YVLSRTVRCTCISISNQCVNPRSLEKLEIIPASQFCPRVEIIATMKKKGEKRCLNPESKCIKNLLKAVSKERSKASPEPKSSDKTHTCPPCPAPELRRGPSVFLFPPKPKDTLMISRTPEVTCVVVDVSHEDPEVKFNWYVDGVEVHNAKTKPREEQYNSTYRVVSVLTVLHQDWLNGKEYKCKVSNKGLPSSIEKTISKAKGQPREPQVCTLPPSREEMTKNQVSLWCLVKGFYPSDIAVEWESNGQPENNYKTTPPVLDSDGSFFLYSKLTVDKSRWQEGNVFSCSVMHEALHNHYTQKSLSLSP
chain 2: EPKSSDKTHTCPPCPAPELRRGPSVFLFPPKPKDTLMISRTPEVTCVVVDVSHEDPEVKFNWYVDGVEVHNAKTKPREEQYNSTYRVVSVLTVLHQDWLNGKEYKCKVSNKGLPSSIEKTISKAKGQPREPQVYTLPPSRCEMTKNQVSLSCAVKGFYPSDIAVEWESNGQPENNYKTTPPVLDSDGSFFLVSKLTVDKSRWQEGNVFSCSVMHEALHNRYTQKSLSLSP
With B4 the “cell migration-inducing activity at 3 nM, relative to hCXCL10R75A.0670 Fc fusion = 100%” value [3] was 100%, the “cell migration-inducing activity at 10 nM, relative to hCXCL10R75A.0670 Fc fusion = 100%” value [3] was 100% and the “cell migration-inducing activity at 30 nM, relative to hCXCL10R75A.0670 Fc fusion = 100%” value [3] was 100%. The “cell migration-inducing activity at 100 nM, relative to hCXCL10R75A.0670 Fc fusion = 100%” value [3] was 100%, the “cell migration-inducing activity at 300 nM, relative to hCXCL10R75A.0670 Fc fusion = 100%” value [3] was 100% and the “cell migration-inducing activity at 1000 nM, relative to hCXCL10R75A.0670 Fc fusion = 100%” value [3] was 100%. For the same binder, the “cell migration-inducing activity (BaF3/mCXCR3 transwell) at 3 nM, relative to hCXCL10R75A Fc fusion = 100%” value [5] was 195%, the “cell migration-inducing activity (BaF3/mCXCR3 transwell) at 10 nM, relative to hCXCL10R75A Fc fusion = 100%” value [5] was 146% and the “cell migration-inducing activity (BaF3/mCXCR3 transwell) at 30 nM, relative to hCXCL10R75A Fc fusion = 100%” value [5] was 132%. The “cell migration-inducing activity (BaF3/mCXCR3 transwell) at 100 nM, relative to hCXCL10R75A Fc fusion = 100%” value [5] was 132%, the “cell migration-inducing activity (BaF3/mCXCR3 transwell) at 300 nM, relative to hCXCL10R75A Fc fusion = 100%” value [5] was 127% and the “cell migration-inducing activity (BaF3/mCXCR3 transwell) at 1000 nM, relative to hCXCL10R75A Fc fusion = 100%” value [5] was 24%.

B5: hCXCL10R75A.0644-G1T4k.one//VHn-G1T4h.one.H435R (Fc fusion)
chain 1: VVLSRTVRCTCISISNQCVNPRSLEKLEIIPASQFCPRVEIIATMKKKGEKRCLNPESKCIKNLLKAVSKERSKASPEPKSSDKTHTCPPCPAPELRRGPSVFLFPPKPKDTLMISRTPEVTCVVVDVSHEDPEVKFNWYVDGVEVHNAKTKPREEQYNSTYRVVSVLTVLHQDWLNGKEYKCKVSNKGLPSSIEKTISKAKGQPREPQVCTLPPSREEMTKNQVSLWCLVKGFYPSDIAVEWESNGQPENNYKTTPPVLDSDGSFFLYSKLTVDKSRWQEGNVFSCSVMHEALHNHYTQKSLSLSP
chain 2: EPKSSDKTHTCPPCPAPELRRGPSVFLFPPKPKDTLMISRTPEVTCVVVDVSHEDPEVKFNWYVDGVEVHNAKTKPREEQYNSTYRVVSVLTVLHQDWLNGKEYKCKVSNKGLPSSIEKTISKAKGQPREPQVYTLPPSRCEMTKNQVSLSCAVKGFYPSDIAVEWESNGQPENNYKTTPPVLDSDGSFFLVSKLTVDKSRWQEGNVFSCSVMHEALHNRYTQKSLSLSP
In the case of B5, the “cell migration-inducing activity (BaF3/mCXCR3 transwell) at 3 nM, relative to hCXCL10R75A Fc fusion = 100%” value [1] is reported as 174%, the “cell migration-inducing activity (BaF3/mCXCR3 transwell) at 10 nM, relative to hCXCL10R75A Fc fusion = 100%” value [1] is reported as 144% and the “cell migration-inducing activity (BaF3/mCXCR3 transwell) at 30 nM, relative to hCXCL10R75A Fc fusion = 100%” value [1] is reported as 109%. The “cell migration-inducing activity (BaF3/mCXCR3 transwell) at 100 nM, relative to hCXCL10R75A Fc fusion = 100%” value [1] was 107%, the “cell migration-inducing activity (BaF3/mCXCR3 transwell) at 300 nM, relative to hCXCL10R75A Fc fusion = 100%” value [1] was 153% and the “cell migration-inducing activity (BaF3/mCXCR3 transwell) at 1000 nM, relative to hCXCL10R75A Fc fusion = 100%” value [1] was 163%.
